B1: Hairpin Ribozyme (parent)
chain: GUCCUCUUUCACGUGCGCGUGAAAGAGAGAAGUGAACCAGAGAAACACACGUUGUGGUAUAUUACCUGGUA

Variants of: B1
Assay: self-cleavage, relative activity (ratio to wild type); higher = more cleavage; co-transcriptional

Going from GUCCUCUUUCACGUGCGCGUGAAAGAGAGAAGUGAACCAGAGAAACACACUUUGUGAUAUAUUACCUGGUA [G51U G57A] to GUCCUCUUUCACGUGCGCGUGAAAGAGAGAAGUGAACCAGAGAAACACACGACGUGGUAUAUUACCUGGUA [U52A U53C], the self-cleavage rises from 0.122 to 1.32.

Compared with GUCCUCUUUCACGUGCGCGUGAAAGAGAGAAGUGAACCAGAGAAACACACGGUGUGGUAUAUUAGCUGGUA [U52G C65G], GUCCUCUUUCACGUGCGCGUGAAAGAGAGAAGUGAACCAGAGAAACACACGAUGUGGUAUUUUACCUGGUA [U52A A61U] is lower in self-cleavage: 0.266 for the first, 0.094 for the second.

Compared with GUCCUCUUUCACGUGCGCGUGAAAGAGAGAAGUGAACCAGAGAAACACACGAUGUGGUAUGUUACCUGGUA [U52A A61G], GUCCUCUUUCACGUGCGCGUGAAAGAGAGAAGUGAACCAGAGAAACACACGUAGUGGUAUAUUACAUGGUA [U53A C66A] is lower in self-cleavage: 0.22 for the first, 0.205 for the second.

First: GUCCUCUUUCACGUGCGCGUGAAAGAGAGAAGUGAACCAGAGAAACACACGCUGUGGUAUAUUACCUGAUA [U52C G69A]
Second: GUCCUCUUUCACGUGCGCGUGAAAGAGAGAAGUGAACCAGAGAAACACACUUUGUGGUGUAUUACCUGGUA [G51U A59G]
The self-cleavage of the first is higher: 0.416 for the first, 0.138 for the second.

First: GUCCUCUUUCACGUGCGCGUGAAAGAGAGAAGUGAACCAGAGAAACACACUUUGUGGUUUAUUACCUGGUA [G51U A59U]
Second: GUCCUCUUUCACGUGCGCGUGAAAGAGAGAAGUGAACCAGAGAAACACACGAUGUGGUAUAUGACCUGGUA [U52A U63G]
The self-cleavage of the first is lower: 0.0798 for the first, 0.121 for the second.

Going from GUCCUCUUUCACGUGCGCGUGAAAGAGAGAAGUGAACCAGAGAAACACACGAUGUGGUAUAUUACCUGGUG [U52A A71G] to GUCCUCUUUCACGUGCGCGUGAAAGAGAGAAGUGAACCAGAGAAACACACGAUGUGGUAUAUUACCUGGUU [U52A A71U], the self-cleavage falls from 1.12 to 0.915.

Compared with GUCCUCUUUCACGUGCGCGUGAAAGAGAGAAGUGAACCAGAGAAACACACUUUGUGGUAUGUUACCUGGUA [G51U A61G], GUCCUCUUUCACGUGCGCGUGAAAGAGAGAAGUGAACCAGAGAAACACACUUUGUGGUAUUUUACCUGGUA [G51U A61U] is higher in self-cleavage: 0.112 for the first, 0.25 for the second.

Compared with GUCCUCUUUCACGUGCGCGUGAAAGAGAGAAGUGAACCAGAGAAACACACGUAGUGGUAUAUUACCCGGUA [U53A U67C], GUCCUCUUUCACGUGCGCGUGAAAGAGAGAAGUGAACCAGAGAAACACACGUAGUGGUAUAUUACCUGGUU [U53A A71U] is higher in self-cleavage: 0.279 for the first, 0.706 for the second.

First: GUCCUCUUUCACGUGCGCGUGAAAGAGAGAAGUGAACCAGAGAAACACACGUAGUGGGAUAUUACCUGGUA [U53A U58G]
Second: GUCCUCUUUCACGUGCGCGUGAAAGAGAGAAGUGAACCAGAGAAACACACGCUGUGGUAUAUUACCUGGAA [U52C U70A]
The self-cleavage of the first is lower: 0.603 for the first, 1.22 for the second.

Compared with GUCCUCUUUCACGUGCGCGUGAAAGAGAGAAGUGAACCAGAGAAACACACGGUGUGGUUUAUUACCUGGUA [U52G A59U], GUCCUCUUUCACGUGCGCGUGAAAGAGAGAAGUGAACCAGAGAAACACACGAUGUGGUAUAAUACCUGGUA [U52A U62A] is higher in self-cleavage: 0.177 for the first, 0.24 for the second.

First: GUCCUCUUUCACGUGCGCGUGAAAGAGAGAAGUGAACCAGAGAAACACACGGUGUGGUAUGUUACCUGGUA [U52G A61G]
Second: GUCCUCUUUCACGUGCGCGUGAAAGAGAGAAGUGAACCAGAGAAACACACGGUGUGGUAUUUUACCUGGUA [U52G A61U]
The self-cleavage of the first is higher: 0.163 for the first, 0.0725 for the second.

First: GUCCUCUUUCACGUGCGCGUGAAAGAGAGAAGUGAACCAGAGAAACACACGGUGUGGUAUAUUACAUGGUA [U52G C66A]
Second: GUCCUCUUUCACGUGCGCGUGAAAGAGAGAAGUGAACCAGAGAAACACACGGUGUGGUAUAUUACCCGGUA [U52G U67C]
The self-cleavage of the first is lower: 0.189 for the first, 0.203 for the second.

Compared with GUCCUCUUUCACGUGCGCGUGAAAGAGAGAAGUGAACCAGAGAAACACACGUAGGGGUAUAUUACCUGGUA [U53A U55G], GUCCUCUUUCACGUGCGCGUGAAAGAGAGAAGUGAACCAGAGAAACACACGUAGCGGUAUAUUACCUGGUA [U53A U55C] is lower in self-cleavage: 0.389 for the first, 0.256 for the second.

Compared with GUCCUCUUUCACGUGCGCGUGAAAGAGAGAAGUGAACCAGAGAAACACACGAUGUGGUAUAUUACCAGGUA [U52A U67A], GUCCUCUUUCACGUGCGCGUGAAAGAGAGAAGUGAACCAGAGAAACACACGAUGUGGUAUAUUACCCGGUA [U52A U67C] is lower in self-cleavage: 0.307 for the first, 0.239 for the second.

Compared with GUCCUCUUUCACGUGCGCGUGAAAGAGAGAAGUGAACCAGAGAAACACACGGUGUGGGAUAUUACCUGGUA [U52G U58G], GUCCUCUUUCACGUGCGCGUGAAAGAGAGAAGUGAACCAGAGAAACACACGGUGUGGUAUAUUACCUGUUA [U52G G69U] is lower in self-cleavage: 0.498 for the first, 0.27 for the second.

First: GUCCUCUUUCACGUGCGCGUGAAAGAGAGAAGUGAACCAGAGAAACACACGAUGUGGUAUAUUACCUGCUA [U52A G69C]
Second: GUCCUCUUUCACGUGCGCGUGAAAGAGAGAAGUGAACCAGAGAAACACACUUUGGGGUAUAUUACCUGGUA [G51U U55G]
The self-cleavage of the first is higher: 0.268 for the first, 0.222 for the second.

Going from GUCCUCUUUCACGUGCGCGUGAAAGAGAGAAGUGAACCAGAGAAACACACUUUGUGGUAUAUUCCCUGGUA [G51U A64C] to GUCCUCUUUCACGUGCGCGUGAAAGAGAGAAGUGAACCAGAGAAACACACUUUGUGGUAAAUUACCUGGUA [G51U U60A], the self-cleavage rises from 0.188 to 1.11.

Compared with GUCCUCUUUCACGUGCGCGUGAAAGAGAGAAGUGAACCAGAGAAACACACGCUGUGGCAUAUUACCUGGUA [U52C U58C], GUCCUCUUUCACGUGCGCGUGAAAGAGAGAAGUGAACCAGAGAAACACACUUUGUGGUAUAUUACCCGGUA [G51U U67C] is lower in self-cleavage: 0.755 for the first, 0.299 for the second.

First: GUCCUCUUUCACGUGCGCGUGAAAGAGAGAAGUGAACCAGAGAAACACACGAUGUGGUAUAUUAACUGGUA [U52A C65A]
Second: GUCCUCUUUCACGUGCGCGUGAAAGAGAGAAGUGAACCAGAGAAACACACGGUGUGGUAUAAUACCUGGUA [U52G U62A]
The self-cleavage of the first is higher: 1.06 for the first, 0.187 for the second.

Source: the RNAGym collection of RNA variant scans (doi:10.7554/elife.80360)
